Assay results taken from patent US20070178098A1.

What was measured:
human IL-6 (human) = human IL-6 (human) (UniProt P05231); assay: cell-based or functional assay
[1] = target: Fc-IL6Ralpha-IL6 (human IL-6Ralpha and IL-6; mouse Fc); assay: cell-based or functional assay
Chain of Fc-IL6Ralpha-IL6 (human IL-6Ralpha and IL-6; mouse Fc) (chain, as listed by the source limits assumed): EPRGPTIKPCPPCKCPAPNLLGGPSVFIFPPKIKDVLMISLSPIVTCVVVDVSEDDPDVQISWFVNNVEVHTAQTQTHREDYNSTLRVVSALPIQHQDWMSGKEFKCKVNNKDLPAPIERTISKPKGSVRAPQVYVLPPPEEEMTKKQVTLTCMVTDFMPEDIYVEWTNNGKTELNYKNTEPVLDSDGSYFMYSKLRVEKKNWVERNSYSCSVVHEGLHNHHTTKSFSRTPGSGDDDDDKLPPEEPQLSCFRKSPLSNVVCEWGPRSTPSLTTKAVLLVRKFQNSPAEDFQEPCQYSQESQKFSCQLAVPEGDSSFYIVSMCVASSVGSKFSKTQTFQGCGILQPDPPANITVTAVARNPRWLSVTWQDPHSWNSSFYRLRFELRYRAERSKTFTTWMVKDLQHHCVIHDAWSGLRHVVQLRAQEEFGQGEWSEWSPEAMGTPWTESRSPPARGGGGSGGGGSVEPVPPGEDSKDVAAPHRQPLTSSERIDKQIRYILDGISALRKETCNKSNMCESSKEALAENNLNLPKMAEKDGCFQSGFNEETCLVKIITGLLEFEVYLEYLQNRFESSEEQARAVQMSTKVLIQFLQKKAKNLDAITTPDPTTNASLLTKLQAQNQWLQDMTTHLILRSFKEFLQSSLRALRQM

Chain of human IL-6 (human) (P05231 30-212 limits assumed): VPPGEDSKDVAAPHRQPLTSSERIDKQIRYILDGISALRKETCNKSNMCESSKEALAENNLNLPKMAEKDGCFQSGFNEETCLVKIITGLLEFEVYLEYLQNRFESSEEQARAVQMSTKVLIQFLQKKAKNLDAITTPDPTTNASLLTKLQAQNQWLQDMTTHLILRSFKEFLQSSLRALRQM

B1: CNTO-328 (antibody, INN chains, looked up, V domains shown)
VH: EVQLVESGGKLLKPGGSLKLSCAASGFTFSSFAMSWFRQSPEKRLEWVAEISSGGSYTYYPDTVTGRFTISRDNAKNTLYLEMSSLRSEDTAMYYCARGLWGYYALDYWGQGTSVTVSS
VL: QIVLIQSPAIMSASPGEKVTMTCSASSSVSYMYWYQQKPGSSPRLLIYDTSNLASGVPVRFSGSGSGTSYSLTISRMEAEDAATYYCQQWSGYPYTFGGGTKLEIK
- Haptoglobin Inhibition IC50 (HepG2 cells stimulated with IL-6) (human IL-6 (human)): 0.00519 µg/mL
- LP-1 Proliferation IC50 (stimulated with IL-6) (human IL-6 (human)): 0.0101 µg/mL
- 8 Hours % Inhibition of haptoglobin secretion in mice given Fc-IL6Rα-IL6 [1]: 12%
- 24 hours % Inhibition of haptoglobin secretion in mice given Fc-IL6Rα-IL6 [1]: -3%
- Haptoglobin Inhibition IC50 (HepG2 cells stimulated with IL-6Rα-IL-6) [1]: > 0.333 µg/mL
- LP-1 Proliferation IC50 (stimulated with Fc-IL6Ralpha-IL6) [1]: 1.61 µg/mL
